The supplement of paper PMC10567573

B1: SLC19A2 (parent)
chain: IYPVWTYSYLVLLFPVFLATDYLR
B2: PTPRD (parent)
chain: LTKLREMGREKCHQYWPAERSARY

Variants of: B1
Experiment: protein stability index of a GFP-peptide fusion (GPS, HEK-293T) (PSI 1-6); higher = more stable
Settings: c terminus: a fixed tail appended
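Note: lentivirally expressed fusions sorted by FACS into six bins by GFP to DsRed ratio, PSI derived from sequencing read proportions per bin multiplied by bin number.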

Protein stability index, by site and new letter:
L23: K 2.22 | M 3.02 | N 1.46 | Q 2.54 | R 3.03 | S 2.62 | T 2.48 | V 2.32 | W 3.21
R24: A 2.61 | C 1.84 | D 2.64 | E 1.91 | F 3.56 | G 2.58 | H 2.63 | I 3.43 | K 3.31 | L 2.41 | M 2.99 | N 4.07 | P 1.99 | Q 3.46 | S 3.04 | T 1.69 | W 3.24 | Y 2.75

Variants of: B2
Experiment: as above
Settings: c terminus: a fixed tail appended

Protein stability index, by site and new letter:
L1: A 2.88 | C 2.42 | D 3.59 | E 3.12 | F 1.97 | G 2.47 | H 2.87 | I 2.26 | K 3.36 | M 2.95 | N 3.1 | P 2.66 | Q 2.87 | R 2.47 | S 2.59 | T 2.86 | V 2.39 | W 2.43 | Y 2.21
T2: A 2.69 | C 1.82 | D 2.83 | E 3.03 | F 1.96 | G 2.77 | H 2.25 | I 2.22 | K 2.92 | L 2.15 | M 2.29 | N 2.29 | P 2.53 | Q 2.95 | R 2.3 | S 2.16 | V 1.99 | W 1.78 | Y 1.97
K3: A 2.7 | C 2.34 | D 2.9 | E 3.3 | F 2.4 | G 2.64 | H 2.41 | I 2.08 | L 2.21 | M 2.41 | N 3.09 | P 2.66 | Q 2.33 | R 2.43 | S 2.73 | T 2.63 | V 1.92 | W 1.88 | Y 2.44
L4: A 2.72 | C 2.12 | D 3.29 | E 3.55 | F 2.63 | G 3.55 | H 2.84 | I 2.58 | K 2.8 | M 2.65 | N 3.04 | P 2.88 | Q 3.1 | R 2.92 | S 2.99 | T 2.77 | V 2.48 | W 2.12 | Y 2.63
R5: A 2.53 | C 2.62 | D 3.32 | E 3.16 | F 2.21 | G 3.18 | H 2.58 | I 2.44 | K 2.29 | L 2.4 | M 2.39 | N 2.76 | P 2.75 | Q 2.91 | S 3.17 | T 2.38 | V 2.18 | W 2.24 | Y 2.23
E6: A 2.41 | C 1.75 | D 2.66 | F 2.45 | G 2.23 | H 2.09 | I 1.9 | K 1.95 | L 2.13 | M 2.18 | N 1.8 | P 2.33 | Q 2.1 | R 2.38 | S 1.98 | T 2.52 | V 1.73 | W 1.82 | Y 1.7
M7: A 2.57 | C 2.23 | D 3.14 | E 3.25 | F 2.41 | G 2.64 | H 2.75 | I 2.54 | K 2.98 | L 1.9 | N 2.77 | P 2.67 | Q 2.56 | R 2.35 | S 2.55 | T 2.71 | V 2.56 | W 1.67 | Y 2.7
G8: A 2.02 | C 2.39 | D 3.22 | E 2.65 | F 1.73 | H 1.93 | I 1.29
